Experiments:
[1] = molecular target: C3 complement protein (human)
[2] = molecular target: C1s complement protein (human)
[3] = molecular target: C1r complement protein (human)

With “complement evasion factor (CEF), recombinant Spy0136 (from UniProt Q9A1R6 28-221) (natural protein)” the C3b deposition on S. pyogenes opsonised with human serum with 0.5 µM rCEF, flow cytometry [1] was 30 % decrease, the Wieslab complement assay, classical pathway activity (C5b-9 formation) of serum pre-incubated with 2 µM rCEF [2] was < 10 % activity and the Wieslab complement assay, classical pathway activity (C5b-9 formation) of serum pre-incubated with 2 µM rCEF [3] was < 10 % activity.
